The values below come from patent US20240132578A1.

Experiment in all cases: cell-based or functional assay
Experiment [1] deals with HIV-1 Env of isolate MGRM-C-017 (subtype C), on pseudovirus (HIV-1).
The target in experiment [2] is HIV-1 Env of pseudovirus isolate 92BR020 (clade B) (HIV-1).
Experiment [3] concerns the target HIV-1 Env of pseudovirus isolate 93TH305 (clade B) (HIV-1).
For experiment [4], the target named is HIV-1 Env of pseudovirus isolate APV-13 (clade B) (HIV-1).
Experiment [5] has as its target HIV-1 Env of pseudovirus isolate MGRM-Chronic-B-008 (clade B) (HIV-1).
Experiment [6] has as its target HIV-1 Env of isolate 92RW008 (pseudovirus) (HIV-1).
The target in experiment [7] is HIV-1 Env of isolate MGRM-A-006 (pseudovirus) (HIV-1).
For experiment [8], the target named is HIV-1 Env of isolate MGRM-C-001 (HIV-1).
Experiment [9] concerns the target HIV-1 Env of isolate MGRM-D-016 (pseudovirus) (HIV-1).
Experiment [10] addresses HIV-1 Env of isolate MGRM-D-024 (HIV-1).
The target of experiment [11] is HIV-1 Env of isolate MGRM-F1-006 (HIV-1).
For experiment [12], the target named is HIV-1 Env of pseudovirus isolate MGRM-C-019 (clade C) (HIV-1).
Experiment [13] has as its target HIV-1 Env of pseudovirus isolate MGRM-C-025 (clade C) (HIV-1).
Experiment [14] concerns the target HIV-1 JR-CSF Env S393A (HIV-1 (isolate JR-CSF)) (UniProt P20871).
Experiment [15] has as its target HIV-1 Env of isolate MGRM-AG-002 (pseudovirus) (HIV-1).
Experiment [16] deals with HIV-1 Env of isolate MGRM-AG-008 (pseudovirus) (HIV-1).
Experiment [17] addresses HIV-1 92UG005 Env (HIV-1).
Experiment [18] concerns the target HIV-1 Env of isolate MGRM-F1-015 (pseudovirus) (HIV-1).
For experiment [19], the target named is HIV-1 envelope glycoprotein (Env) of isolate MG RM-A-005, subtype A (HIV-1).
For experiment [20], the target named is HIV-1 envelope glycoprotein (Env) of isolate MGRM-AE-002, subtype AE (HIV-1).
For experiment [21], the target named is HIV-1 envelope glycoprotein (Env) of isolate MGRM-AE-003, subtype AE (HIV-1).
Experiment [22] concerns the target HIV-1 envelope glycoprotein (Env) of isolate MGRM-Chronic-B-008, on pseudovirus (HIV-1).
The target in experiment [23] is HIV-1 envelope glycoprotein (Env) of isolate MGRM-Chronic-B-023, on pseudovirus (HIV-1).
The target of experiment [24] is HIV-1 envelope glycoprotein (Env) of isolate NL43, on pseudovirus (HIV-1).
The target in experiment [25] is HIV-1 Env of isolate 6535.3 (Acute), clade B (HIV-1).
The target of experiment [26] is HIV-1 Env of isolate 92RW009 (clade A pseudovirus) (HIV-1).
Experiment [27] addresses HIV-1 Env of isolate 93TH305, clade B (HIV-1).
For experiment [28], the target named is HIV-1 Env of isolate MGRM-A-012 (clade A pseudovirus) (HIV-1).
Experiment [29] addresses HIV-1 Env of isolate MGRM-A-013 (clade A pseudovirus) (HIV-1).
Experiment [30] deals with HIV-1 Env of isolate MGRM-D-016 (clade D pseudovirus) (HIV-1).
In experiment [31] the target is HIV-1 Env of isolate MGRM-D-024 (clade D pseudovirus) (HIV-1).
Experiment [32] addresses HIV-1 Env of isolate TRJ0.58 (Acute), clade B (HIV-1).
Experiment [33] concerns the target HIV-1 Env of pseudovirus MGRM-F1-012 (clade F) (HIV-1).
For experiment [34], the target named is HIV-1 Env of pseudovirus MGRM-F1-020 (clade F) (HIV-1).
Experiment [35] has as its target HIV-1 Env of pseudovirus MGRM-F1-022 (clade F) (HIV-1).
In experiment [36] the target is HIV-1 envelope glycoprotein (Env) of isolate MGRM-C-010 (HIV-1).
Experiment [37] has as its target HIV-1 envelope glycoprotein (Env) of isolate MGRM-C-012 (HIV-1).

Chain of 4995_E20 (PGT-142) (antibody) (VH): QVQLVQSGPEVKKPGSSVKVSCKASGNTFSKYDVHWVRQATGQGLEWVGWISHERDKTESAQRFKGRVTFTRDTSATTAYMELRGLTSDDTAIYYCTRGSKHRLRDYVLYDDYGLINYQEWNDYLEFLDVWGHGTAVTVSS
Chain of 4995_E20 (PGT-142) (antibody) (VL): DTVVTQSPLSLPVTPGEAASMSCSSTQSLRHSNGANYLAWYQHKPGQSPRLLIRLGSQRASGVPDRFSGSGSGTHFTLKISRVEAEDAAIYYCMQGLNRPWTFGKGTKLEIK
Chain of 4980_N08 (PGT-143) (antibody) (VH): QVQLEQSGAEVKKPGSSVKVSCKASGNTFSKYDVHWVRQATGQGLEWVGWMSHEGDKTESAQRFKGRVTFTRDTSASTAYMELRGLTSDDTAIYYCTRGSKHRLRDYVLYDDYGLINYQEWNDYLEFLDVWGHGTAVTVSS
Chain of 4980_N08 (PGT-143) (antibody) (VL): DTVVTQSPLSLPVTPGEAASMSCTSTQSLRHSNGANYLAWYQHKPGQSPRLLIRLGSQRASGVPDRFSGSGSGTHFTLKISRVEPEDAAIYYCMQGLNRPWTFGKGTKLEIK
Chain of 4970_K22 (PGT-144) (antibody) (VH): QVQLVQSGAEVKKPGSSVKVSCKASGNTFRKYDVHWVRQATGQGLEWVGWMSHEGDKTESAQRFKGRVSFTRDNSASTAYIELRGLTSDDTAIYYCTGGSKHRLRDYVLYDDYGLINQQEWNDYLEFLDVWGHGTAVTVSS
Chain of 4970_K22 (PGT-144) (antibody) (VL): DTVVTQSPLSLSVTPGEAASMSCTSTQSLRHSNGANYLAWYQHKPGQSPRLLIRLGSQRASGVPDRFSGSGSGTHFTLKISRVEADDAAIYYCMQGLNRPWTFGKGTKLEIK
Chain of 4993_K13 (PGT-141) (antibody) (VH): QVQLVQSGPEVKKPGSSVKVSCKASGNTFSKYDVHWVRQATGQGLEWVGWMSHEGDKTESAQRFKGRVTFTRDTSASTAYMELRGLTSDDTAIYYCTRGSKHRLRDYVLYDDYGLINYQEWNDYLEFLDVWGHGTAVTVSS
Chain of 4995_P16 (PGT-145) (antibody) (VH): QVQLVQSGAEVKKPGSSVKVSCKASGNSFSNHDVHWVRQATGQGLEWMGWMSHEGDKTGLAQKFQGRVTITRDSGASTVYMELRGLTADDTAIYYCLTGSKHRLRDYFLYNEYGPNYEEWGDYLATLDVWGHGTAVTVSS
Chain of 4995_P16 (PGT-145) (antibody) (VL): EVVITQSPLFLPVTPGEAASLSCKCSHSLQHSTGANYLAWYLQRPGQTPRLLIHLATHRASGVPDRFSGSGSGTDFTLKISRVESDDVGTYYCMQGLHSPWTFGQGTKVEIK

For 4995_P16 (PGT-145) (antibody), the IC50, single-round pseudovirus neutralization in [1] was > 50 mg/L. The IC50, pseudovirus neutralization in experiment [2] was 1.05 mg/L; in experiment [3], 0.032 mg/L; in experiment [4], 0.337 mg/L; in experiment [5] it was 1.9 mg/L.
4980_N08 (PGT-143) (antibody) yielded an IC50, single-round pseudovirus neutralization in [1] of 5.17 mg/L. For the same substance, the IC50, pseudovirus neutralization is 25.9 mg/L in experiment [2], 17.3 mg/L in experiment [3], > 50 mg/L in experiment [4] and > 50 mg/L in experiment [5].
With 5114_A19 (PGT-128) (antibody), the IC50 (µg/mL), pseudovirus neutralization is 0.003 µg/mL in [6]; > 50 µg/mL in [7]; > 50 µg/mL in experiment [8]; > 50 µg/mL in experiment [9]; 0.067 µg/mL in experiment [10]; 0.763 µg/mL in experiment [11]. For the same substance, the IC50, pseudovirus neutralization in experiment [12] came out at 0.01 mg/L; in experiment [13] it was 10.5 mg/L. Further, the Fold IC50 increase relative to wild-type (pseudovirus neutralization) in experiment [14] turned out to be 1.4 fold.
As to PGV04 (antibody), the IC50 (µg/mL), pseudovirus neutralization was determined as 0.879 µg/mL in experiment [15] and 2.48 µg/mL in experiment [16].
In turn, 4970_K22 (PGT-144) (antibody) yielded an IC50, single-round pseudovirus neutralization in [1] of 23 mg/L. Besides, the IC50, pseudovirus neutralization in [2] is 44 mg/L; in experiment [3], > 50 mg/L; in experiment [4], > 50 mg/L; in experiment [5], > 50 mg/L.
4858_P08 (PGT-123) (antibody): the IC50, pseudovirus neutralization in [17] is 2.49 mg/L; in experiment [19] it was > 50 mg/L; in experiment [20], > 50 mg/L; in experiment [21], > 50 mg/L; in experiment [22], 0.01 mg/L; in [23] it was 0.055 mg/L. Moreover, the IC50, pseudovirus neutralization in experiment [24] is > 50 mg/L. The IC50 (µg/mL), pseudovirus neutralization in experiment [15] was > 50 µg/mL; in [16], 19.2 µg/mL; in [18], > 50 µg/mL. Also, the Fold IC50 increase relative to wild-type (pseudovirus neutralization) in experiment [14] was 0.6 fold.
Take 5141_B17 (PGT-126) (antibody): the IC50, pseudovirus neutralization in experiment [17] is 0.0181 mg/L; in experiment [19] it was > 50 mg/L; in [20] it was > 50 mg/L; in [21], > 50 mg/L; in experiment [22], 5.89 mg/L; in [23], > 50 mg/L. For the same substance, the IC50, pseudovirus neutralization in experiment [24] is > 50 mg/L. In addition, the IC50 (µg/mL), pseudovirus neutralization in experiment [15], in experiment [16] and in experiment [18] was > 50 µg/mL throughout. This substance showed a Fold IC50 increase relative to wild-type (pseudovirus neutralization) in [14] of 0.5 fold.
As for 4838_L06 (PGT-121) (antibody), the IC50, pseudovirus neutralization was > 10 mg/L in experiment [17]; > 50 mg/L in experiment [19]; > 50 mg/L in experiment [20]; > 50 mg/L in [21]; 0.007 mg/L in [22]; 0.005 mg/L in experiment [23]. The IC50, pseudovirus neutralization in [24] is > 50 mg/L. The same substance displayed an IC50 (µg/mL), pseudovirus neutralization in experiment [18] of 28.4 µg/mL.
In the case of 5345_I01 (PGT-137) (antibody), the IC50 (µg/mL), pseudovirus neutralization in experiment [6] is 0.148 µg/mL; in experiment [7], > 50 µg/mL; in [8] it was 21.5 µg/mL; in [9], > 50 µg/mL; in [10], > 50 µg/mL; in experiment [11], > 50 µg/mL. In addition, the IC50, pseudovirus neutralization in experiment [12] and in experiment [13] was > 50 mg/L throughout.
As for 5329_C19 (PGT-136) (antibody), the IC50 (µg/mL), pseudovirus neutralization in experiment [6] is > 50 µg/mL; in [7] it was > 50 µg/mL; in experiment [8], 7.52 µg/mL; in experiment [9], > 50 µg/mL; in [10] it was > 50 µg/mL; in [11] it was > 50 µg/mL. For the same substance, the IC50, pseudovirus neutralization in experiment [12] is 20.1 mg/L; in experiment [13], > 50 mg/L.
For 5145_B14 (PGT-127) (antibody), the IC50 (µg/mL), pseudovirus neutralization in experiment [15], in experiment [16] and in experiment [18] was > 50 µg/mL throughout. The Fold IC50 increase relative to wild-type (pseudovirus neutralization) in [14] came out at 1.2 fold. The IC50, pseudovirus neutralization was > 50 mg/L in experiment [19]; > 50 mg/L in experiment [20]; > 50 mg/L in experiment [21]; 21.5 mg/L in experiment [22]; > 50 mg/L in [23]; > 50 mg/L in experiment [24].
In experiment [1], 4995_E20 (PGT-142) (antibody) yielded an IC50, single-round pseudovirus neutralization of 1.11 mg/L. For the same substance, the IC50, pseudovirus neutralization in experiment [2] is 15.1 mg/L; in [3] it was 5.86 mg/L; in [4] it was > 50 mg/L; in experiment [5] it was > 50 mg/L.
Substance 4993_K13 (PGT-141) (antibody) had an IC50, single-round pseudovirus neutralization in experiment [1] of 4.02 mg/L. The IC50, pseudovirus neutralization was 20.3 mg/L in [2], > 50 mg/L in experiment [3], > 50 mg/L in [4] and > 50 mg/L in [5].
Turning to 5123_A06 (PGT-125) (antibody), the IC50, pseudovirus neutralization in [17] is > 10 mg/L; in [19], > 50 mg/L; in experiment [20] it was > 50 mg/L; in experiment [21], 0.092 mg/L; in [22], > 50 mg/L; in experiment [23] it was > 50 mg/L. Also, the IC50, pseudovirus neutralization in [24] was > 50 mg/L. Moreover, the IC50 (µg/mL), pseudovirus neutralization in [15], in [16] and in experiment [18] was > 50 µg/mL each time. In experiment [14], the Fold IC50 increase relative to wild-type (pseudovirus neutralization) stood at 0.5 fold.
In the case of 4877_D15 (PGT-122) (antibody), the IC50, pseudovirus neutralization in experiment [17] is > 10 mg/L; in experiment [19] it was > 50 mg/L; in experiment [20] it was > 50 mg/L; in [21], > 50 mg/L; in experiment [22] it was 0.017 mg/L; in experiment [23], 0.01 mg/L. Also, the IC50, pseudovirus neutralization in experiment [24] was > 50 mg/L. For the same substance, the IC50 (µg/mL), pseudovirus neutralization in experiment [15] is > 50 µg/mL; in [16], > 50 µg/mL; in experiment [18], 31.4 µg/mL.
In the case of 1496_C09 (PG9) (TCN-109) (antibody), the IC50 (µg/ml), pseudovirus neutralization stood at 0.22 µg/mL in experiment [25]; 0.03 µg/mL in [26]; 2.08 µg/mL in [27]; 11.2 µg/mL in experiment [28]; 0.16 µg/mL in experiment [29]; 0.43 µg/mL in experiment [32]. The IC50 (µg/ml), pseudovirus neutralization amounted to 12.4 µg/mL in experiment [36] and 0.24 µg/mL in experiment [37]. Further, the IC50 (µg/mL), pseudovirus neutralization in experiment [15] was found to be 0.076 µg/mL. In addition, the figures for the IC50, pseudovirus neutralization in [30] and in experiment [31] were 0.1 mg/L and 0.03 mg/L, respectively. In addition, the IC50 in experiment [33] is 0.01 mg/L; in experiment [34], 4.55 mg/L; in experiment [35], 0.06 mg/L.
